# Target: A beta oligomer (synthetic A beta1-40, HCl form, 0.1 mg/ml in PBS, incubated at 37 degrees C for one hour) (UniProt P05067)
# Experiment: SPR (Biacore 3000)
substance,measurement,value
Anti-A beta antibody 6E10,Kd,2.91 nM
same,koff,0.000168 s⁻¹
same,kon,57800 M⁻¹ s⁻¹

# — patent US20120177664A1
